# Reference: publication PMC5286426, “The Calcium-Dependent Switch Helix of L-Plastin Regulates Actin Bundling” (Scientific Reports, 2017)
# “Also recorded” adds a separate entry of the source.
# Experiments:
# actin [1] = details: compared to the non-phosphorylated LPL protein; cited from earlier work
# From the text: In addition to the Ca^2+ switch, the targeting of LPL to the actin cytoskeleton is also regulated by the phosphorylation of Ser5[41]. Among all three human plastin isoforms, LPL is the only isoform that is currently known to be phosporylated in vivo[40]. Unlike other actin-binding proteins, where phosphorylation usually occurs in the actin-binding domain, LPL phosphorylation seems to take place on the regulatory Ca^2+-binding domain. […] They hypothesized ...
# [2] = cited from earlier work
# From the text: L-plastin (LPL) is a 70 kDa Ca^2+- and actin-binding protein that plays an important role in both the adaptive and innate immune system. Among the three isoforms found in humans (L-, T-, and I-plastin), LPL is exclusively expressed in cells of hematopoietic origin, where it can act as an actin cross-linker by promoting actin bundling. The actin-bundling activity of LPL is known to be calcium-dependent, where increasing calcium concentrations inhibit the formation of actin-bundles[9][10].
# [3] = tested on: Human platelet actin (F-actin); experiment: Actin-bundling assay, low-speed centrifugation and SDS-PAGE; type: biochemical; details: 6 µM F-actin, n = 3 (Fig. 4a); for Amount of actin found in the pellet: 3 µM LPL construct, pH 7.5, room temperature, 1 h; for Amount of LPL found in the pellet: 3 µM LPL
# Procedure: Human platelet actin (Cytoskeleton) was dissolved in 2 mM Tris pH7.5, 0.2 mM CaCl2, 0.2 mM ATP, and 0.5 mM DTT (Buffer G). The actin was then polymerized overnight at 4 °C in 20 mM Tris pH 7.5, 100 mM KCl, and 1 mM MgCl2. Spontaneously bundled F-actin was removed by centrifugation at 12,000 g for 15 min prior to the assay. F-actin and LPL constructs were incubated at room temperature for 1 h in 50 uL of the buffer containing 20 mM Tris pH7.5, 100 mM KCl, 1 mM MgCl2, 6 µM F-actin, 3 µM LPL construct, 0.1 mM CaCl2, 0.1 mM ATP with and without 5 mM EGTA. LPL induced actin bundles were sedimented by centrifugation at 12,000 g for 15 min and the supernatant was carefully removed. The amount of actin and/or LPL construct in the pellet was analyzed by SDS-PAGE. The effect of the presence of 12 µM melittin peptide on actin-bundling was also examined.
# CaM = details: CaM-pull down; cited from earlier work
# From the text: The H5 region of LPL was previously predicted as a potential binding site for CaM[48]. Indeed this sequence produced a high theoretically predicted score for CaM binding. […] Therefore, we have tested the interaction between EF-H5 and CaM in the presence of EDTA. However, ...
# actin [4] = details: in vitro; cited from earlier work
# From the text: LPL is comprised of two N-terminal EF-hand motifs (head-piece domain), which are homologous to a single domain of calmodulin (CaM) (34.7% identical), followed by two actin-binding domains (ABDs)[5]. Each ABD consists of two independently folded calponin homology (CH) domains. While many signaling and cytoskeletal proteins share these CH domains, plastins are the only known proteins to have two tandem ABDs[31][32][33]. The four CH domains are each folded into a compact globular shape where the ABD1 and ABD2 are arranged back-to-back[34][35]. Each ABD can bind an actin-filament, thereby LPL ... || In order to further investigate the role of H5 in the Ca^2+-dependent actin-bundling of LPL, we have performed actin-bundling assays with a series of different LPL constructs (Fig. 4).
molecule,measurement,setting,value
"S5E mutant: LPL S5E mutant of Janji and coworkers (protein, UniProt P13796 2-627, looked up, variant S5E) Plastin-2: ARGEVSDEEMMELREAFAKVDTDGNGYISFNELNDLFKAACLPLPGYRVREITENLMATGDLDQDGRISFDEFIKIFHGLKSTDVAKTFRKAINKKEGICAIGGTSEQSSVGTQHSYSEEEKYAFVNWINKALENDPDCRHVIPMNPNTNDLFNAVGDGIVLCKMINLSVPDTIDERTINKKKLTPFTIQENLNLALNSASAIGCHVVNIGAEDLKEGKPYLVLGLLWQVIKIGLFADIELSRNEALIALLREGESLEDLMKLSPEELLLRWANYHLENAGCNKIGNFSTDIKDSKAYYHLLEQVAPKGDEEGVPAVVIDMSGLREKDDIQRAECMLQQAERLGCRQFVTATDVVRGNPKLNLAFIANLFNRYPALHKPENQDIDWGALEGETREERTFRNWMNSLGVNPRVNHLYSDLSDALVIFQLYEKIKVPVDWNRVNKPPYPKLGGNMKKLENCNYAVELGKNQAKFSLVGIGGQDLNEGNRTLTLALIWQLMRRYTLNILEEIGGGQKVNDDIIVNWVNETLREAKKSSSISSFKDPKISTSLPVLDLIDAIQPGSINYDLLKTENLNDDEKLNNAKYAISMARKIGARVYALPEDLVEVNPKMVMTVFACLMGKGMKRV",Actin bundling activity,actin [1],increased actin bundling activity
"T-plastin: plastin isoform from solid tissues, such as fibroblasts and epithelial cells (protein, UniProt P13797 1-630, looked up) Plastin-3: MDEMATTQISKDELDELKEAFAKVDLNSNGFICDYELHELFKEANMPLPGYKVREIIQKLMLDGDRNKDGKISFDEFVYIFQEVKSSDIAKTFRKAINRKEGICALGGTSELSSEGTQHSYSEEEKYAFVNWINKALENDPDCRHVIPMNPNTDDLFKAVGDGIVLCKMINLSVPDTIDERAINKKKLTPFIIQENLNLALNSASAIGCHVVNIGAEDLRAGKPHLVLGLLWQIIKIGLFADIELSRNEALAALLRDGETLEELMKLSPEELLLRWANFHLENSGWQKINNFSADIKDSKAYFHLLNQIAPKGQKEGEPRIDINMSGFNETDDLKRAESMLQQADKLGCRQFVTPADVVSGNPKLNLAFVANLFNKYPALTKPENQDIDWTLLEGETREERTFRNWMNSLGVNPHVNHLYADLQDALVILQLYERIKVPVDWSKVNKPPYPKLGANMKKLENCNYAVELGKHPAKFSLVGIGGQDLNDGNQTLTLALVWQLMRRYTLNVLEDLGDGQKANDDIIVNWVNRTLSEAGKSTSIQSFKDKTISSSLAVVDLIDAIQPGCINYDLVKSGNLTEDDKHNNAKYAVSMARRIGARVYALPEDLVEVKPKMVMTVFACLMGRGMKRV",Sensitivity to intracellular Ca^2+-signals,[2],relatively insensitive
"LPL: 70 kDa Ca^2+- and actin-binding protein, full-length human L-plastin (protein, left off: GST, end not stated, cleaved) MARGSVSDEEMMELREAFAKVDTDGNGYISFNELNDLFKAACLPLPGYRVREITENLMATGDLDQDGRISFDEFIKIFHGLKSTDVAKTFRKAINKKEGICAIGGTSEQSSVGTQHSYSEEEKYAFVNWINKALENDPDCRHVIPMNPNTNDLFNAVGDGIVLCKMINLSVPDTIDERTINKKKLTPFTIQENLNLALNSASAIGCHVVNIGAEDLKEGKPYLVLGLLWQVIKIGLFADIELSRNEALIALLREGESLEDLMKLSPEELLLRWANYHLENAGCNKIGNFSTDIKDSKAYYHLLEQVAPKGDEEGVPAVVIDMSGLREKDDIQRAECMLQQAERLGCRQFVTATDVVRGNPKLNLAFIANLFNRYPALHKPENQDIDWGALEGETREERTFRNWMNSLGVNPRVNHLYSDLSDALVIFQLYEKIKVPVDWNRVNKPPYPKLGGNMKKLENCNYAVELGKNQAKFSLVGIGGQDLNEGNRTLTLALIWQLMRRYTLNILEEIGGGQKVNDDIIVNWVNETLREAKKSSSISSFKDPKISTSLPVLDLIDAIQPGSINYDLLKTENLNDDEKLNNAKYAISMARKIGARVYALPEDLVEVNPKMVMTVFACLMGKGMKRV",Sensitivity to intracellular Ca^2+-signals,[2],optimal Ca^2+-binding affinity to respond to intracellular Ca^2+-signals
same,Amount of actin found in the pellet,[3]; in the presence of Ca^2+ (0.1 mM CaCl2),~ 50%
same,Amount of actin found in the pellet,"[3]; in the presence of EGTA, 5 mM EGTA",~ 90%
same,Amount of LPL found in the pellet,[3]; with Ca^2+,~ 50%
same,Amount of LPL found in the pellet,[3]; with EGTA,~ 70%
same,Direct binding to CaM,CaM,only seen in the absence of Ca^2+
"ABD1: actin-binding domain 1 of LPL (residues 113–379) (protein, UniProt P13796 113-379, looked up, fragment, actin-binding domain 1) GTQHSYSEEEKYAFVNWINKALENDPDCRHVIPMNPNTNDLFNAVGDGIVLCKMINLSVPDTIDERTINKKKLTPFTIQENLNLALNSASAIGCHVVNIGAEDLKEGKPYLVLGLLWQVIKIGLFADIELSRNEALIALLREGESLEDLMKLSPEELLLRWANYHLENAGCNKIGNFSTDIKDSKAYYHLLEQVAPKGDEEGVPAVVIDMSGLREKDDIQRAECMLQQAERLGCRQFVTATDVVRGNPKLNLAFIANLFNRYPALHK",Actin binding of ABD1 relative to ABD2,actin [4],an order of magnitude stronger than ABD2; also recorded: ten times stronger than ABD2
